B1: A2B tRNA: tRNApyl Methanosarcina mazei with A10G, T14A, A52C mutations (nucleic acid)
DNA: GGAAACCTGGTCAAGTAGATCGAATGGACTCTAAATCCGTTCAGCCGGGTTCGATTCCCGGGGTTTCCG
modifications: expressed or natural sequence
notes: tRNApyl Methanosarcina mazei with A10G, T14A, A52C mutations
B2: Vault WT tRNA: WT tRNApyl downstream of the Vault promoter 5′ region (nucleic acid)
DNA: TGGTCGCTGAGTCATGCTGAAGCACTCTCTTTTTGACTCACTCTTTGTGACGTAGGTCTTTCTCACCAGTCAATAAAATATAATCCGAAAGCAACCTCCCACCAGGAAACCTGATCATGTAGATCGAATGGACTCTAAATCCGTTCAGCCGGGTTAGATTCCCGGGGTTTCCGGACAAGTGCGGTTTTT
modifications: Synthetic sequence Vault tRNA-WT construct
notes: WT tRNApyl downstream of the Vault promoter 5′ region
B3: Vault B tRNA: tRNA-B downstream of the Vault promoter 5′ region (nucleic acid)
DNA: TGGTCGCTGAGTCATGCTGAAGCACTCTCTTTTTGACTCACTCTTTGTGACGTAGGTCTTTCTCACCAGTCAATAAAATATAATCCGAAAGCAACCTCCCACCAGGAAACCTGATCATGTAGATCGAATGGACTCTAAATCCGTTCAGCCGGGTTCGATTCCCGGGGTTTCCGGACAAGTGCGGTTTTT
modifications: Synthetic sequence Vault tRNA-B construct
notes: tRNA-B downstream of the Vault promoter 5′ region
B4: Vault A2B tRNA: tRNA-A2B downstream of the Vault promoter 5′ region (nucleic acid)
DNA: TGGTCGCTGAGTCATGCTGAAGCACTCTCTTTTTGACTCACTCTTTGTGACGTAGGTCTTTCTCACCAGTCAATAAAATATAATCCGAAAGCAACCTCCCACCAGGAAACCTGGTCAAGTAGATCGAATGGACTCTAAATCCGTTCAGCCGGGTTCGATTCCCGGGGTTTCCGGACAAGTGCGGTTTTT
modifications: Synthetic sequence Vault tRNA-A2B construct
notes: tRNA-A2B downstream of the Vault promoter 5′ region
B5: H1-A1 tRNA: tRNA-A1 (A10G) under control of the H1 promoter (nucleic acid)
DNA: AATATTTGCATGTCGCTATGTGTTCTGGGAAATCACCATAAACGTGAAATCCCTATCAGTGATAGAGACTTATAAGTTCCCTATCAGTGATAGAGACACCAGGAAACCTGGTCATGTAGATCGAATGGACTCTAAATCCGTTCAGCCGGGTTAGATTCCCGGGGTTTCCGGACAAGTGCGGTTTTTTT
modifications: Synthetic sequence H1 tRNA-A1 construct
notes: tRNA-A1 (A10G) under control of the H1 promoter
B6: H1 A2 tRNA: tRNA-A2 (A10G, T14A) under control of the H1 promoter (nucleic acid)
DNA: AATATTTGCATGTCGCTATGTGTTCTGGGAAATCACCATAAACGTGAAATCCCTATCAGTGATAGAGACTTATAAGTTCCCTATCAGTGATAGAGACACCAGGAAACCTGGTCAAGTAGATCGAATGGACTCTAAATCCGTTCAGCCGGGTTAGATTCCCGGGGTTTCCGGACAAGTGCGGTTTTTTT
modifications: Synthetic sequence H1 tRNA-A2 construct
notes: tRNA-A2 (A10G, T14A) under control of the H1 promoter
B7: 7SL tRNA A1: tRNA-A1 downstream of the 7SL promoter 5′ region (nucleic acid)
DNA: CCCAGTTGATGACGTCACCATACCACAGCTTCTAGTGCTATTCTGCGCCGGTATCCGACCACCAGGAAACCTGGTCATGTAGATCGAATGGACTCTAAATCCGTTCAGCCGGGTTAGATTCCCGGGGTTTCCGGACAAGTGCGGTTTTT
modifications: Synthetic sequence 7SL tRNA-A1 construct
notes: tRNA-A1 downstream of the 7SL promoter 5′ region
B8: 7SL AB: tRNA-AB downstream of the 7SL promoter 5′ region (nucleic acid)
DNA: CCCAGTTGATGACGTCACCATACCACAGCTTCTAGTGCTATTCTGCGCCGGTATCCGACCACCAGGAAACCTGGTCATGTAGATCGAATGGACTCTAAATCCGTTCAGCCGGGTTCGATTCCCGGGGTTTCCGGACAAGTGCGGTTTTT
modifications: Synthetic sequence 7SL tRNA-AB construct
notes: tRNA-AB downstream of the 7SL promoter 5′ region
B9: 7SL A2B: tRNA-A2B downstream of the 7SL promoter 5′ region (nucleic acid)
DNA: CCCAGTTGATGACGTCACCATACCACAGCTTCTAGTGCTATTCTGCGCCGGTATCCGACCACCAGGAAACCTGGTCAAGTAGATCGAATGGACTCTAAATCCGTTCAGCCGGGTTCGATTCCCGGGGTTTCCGGACAAGTGCGGTTTTT
modifications: Synthetic sequence 7SL tRNA-A2B construct
notes: tRNA-A2B downstream of the 7SL promoter 5′ region

Test system: GFPY40 reporter (GFP containing an amber codon) in HEK293 cells stably expressing pylRS
Test: Amber suppression-dependent GFP expression (GFPY40 reporter), transient transfection, flow cytometry
Format: cell-based
Conditions: for capacity to support amber suppression relative to H1 WT tRNA (FIG. 4): all tRNA variants under control of the H1 promoter, 1 ug construct + 1 ug GFPY40, lys azide 2 mM, 18 hours; for GFP MFI, FIG. 8: 1 ug PCR product of each construct, lys azide nnAA
Description: To assess the function of the tRNA variants, an in vitro assay was established where cells are transiently transfected with a tRNA construct and a reporter construct encoding GFP containing an amber codon interrupting its reading frame (GFPY40). HEK293 cells stably expressing pylRS were transiently transfected with various tRNA constructs (1 ug) and the GFPY40 reporter (1 ug). In the absence of elements that support amber suppression, a truncated GFP protein is generated and the cell is not fluorescent. However, the introduction of a functional tRNA and the presence of a nnAA that supports amber suppression allows for the production of full length GFP resulting in fluorescent cells. The level of GFP expression reflects the efficiency of amber suppression and is quantified by flow cytometry. tRNA genes encoding wild type tRNApyl (WT tRNA), or containing mutations in the B-box (B tRNA—SEQ ID No 9), in both the A and B box (A2B tRNA—SEQ ID No 10), or in the A box (A1 tRNA-SEQ ID No 7; or A2 tRNA SEQ ID No 11), all under control of the H1 promoter were generated by site directed mutagenesis and assayed. The H1 promoter ensured that the variants were expressed and allowed us to examine the functional effects of the mutations introduced into the tRNA genes. In addition a sample transfected with GFPY40 alone was generated to establish background GFP levels. The transfected cells were grown in presence of the aminoacid analogue lys azide (2 mM) and incubated for 18 hours. GFP fluorescence was then assayed by flow cytometry and mean fluorescence intensity determined for each sample. Data were analysed with FCS Express and the mean fluorescence intensity of each sample determined using markers that constrain the data set to cells showing fluorescence above negative controls.
To begin to assess whether the tRNA mutations can support expression of the tRNA we assayed tRNA constructs encoding the wild type tRNA in the absence of the H1 promoter. Constructs encoding wild type tRNApyl (WT tRNA) or containing mutations in the B-box (B tRNA—SEQ ID No 9) or in both the A and B box (A2B; A2B tRNA—SEQ ID No 10) were assayed using our in vitro amber suppression assay described above. WT tRNA under control of the H1 promoter (H1-tRNA) was used as a positive control, and in addition one sample was transfected only with the GFPY40 reporter to illustrate background amber suppression in the absence of tRNA. The transfected cells were exposed to 2 mM lys-azide nnAA and cells incubated for three days. GFP expression was examined by flow cytometry and mean fluorescence intensity determined.
Two copies of the WT, B, or A2B tRNA were cloned in tandem to generate a single vector containing two copies of WT, B, or A2B tRNA. To assess the effect of increased gene doses by these constructs, cells expressing WTpylRS were transiently transfected with the tRNA constructs and the GFPY40 reporter construct and GFP expression assayed after two days.
The activity of each construct was assessed by transient transfection into cells stably expressing WT pylRS with the GFPY40 reporter as described above. For this experiment, 1 ug of a PCR product encoding each of the indicated constructs was used. In each case, cells were exposed to the lys azide nnAA for three days and GFP levels assayed by flow cytometry. Mean fluorescence intensities were determined for each sample and plotted (FIG. 8).

[1] = 2 mM lys-azide nnAA, three days

Row | Molecule | capacity to support amber suppression relative to H1 WT tRNA (FIG. 4) | GFP MFI, FIG. 8 (three days) | further results
1 | B1 | support amber suppression, albeit at a lower level than the WT tRNA |  | GFP mean fluorescence intensity (MFI), FIG. 5 [1]: 242,747.9; fold higher expression of GFP than the wt tRNA construct (FIG. 5) [1]: 2.5 fold; GFP MFI, single copy tRNA, FIG. 7 (cells expressing WTpylRS, after two days, single copy): 61,950; GFP MFI, tandem copies of tRNA, FIG. 7 (cells expressing WTpylRS, after two days, single vector containing two copies in tandem): 96,158
2 | B2 |  | 102,415 | 
3 | B3 |  | 170,838 | GFP MFI, FIG. 9 (1 ug GFPY40 reporter and 1 ug tRNA expression plasmid): 168,298
4 | B4 |  | 154,445 | 
5 | B5 | does not affect the activity of the tRNA |  | 
6 | B6 | does not affect the activity of the tRNA |  | 
7 | B7 |  | 114,393 | 
8 | B8 |  | 210,380 | 
9 | B9 |  | 245,120 | 
